Results on 1 molecule are retold here after publication PMC2880403 (Journal of molecular biology, 2010).

The target in this test is T1, DsbA C33S (Escherichia coli, UniProt P0AEG4 20-208, C33S).
T1 sequence (looked up): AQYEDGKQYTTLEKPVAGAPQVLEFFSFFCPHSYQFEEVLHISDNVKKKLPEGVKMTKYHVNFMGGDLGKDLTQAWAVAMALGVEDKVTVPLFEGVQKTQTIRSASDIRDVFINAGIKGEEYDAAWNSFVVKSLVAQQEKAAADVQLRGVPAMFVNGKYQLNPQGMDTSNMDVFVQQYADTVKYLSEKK
The experiment in a line: absorbance titration at 500 nm.

B1: His-tagged "wildtype" DsbB containing mutations of nonessential cysteines (C8A, C49V) (enzyme, Escherichia coli, UniProt P0A6M2 1-176, looked up)
chain: MLRFLNQASQGRGAWLLMAFTALALELTALWFQHVMLLKPCVLCIYERVALFGVLGAALIGAIAPKTPLRYVAMVIWLYSAFRGVQLTYEHTMLQLYPSPFATCDFMVRFPEWLPLDKWVPQVFVASGDCAERQWDFLGLEMPQWLLGIFIAYLIVAVLVVISQPFKAKKRDLFGR
As for B1, the binding result is listed as “binds”.
